Test results reported in PMC5667893, “TRIM5α SPRY/coiled-coil interactions optimize avid retroviral capsid recognition” (PLoS Pathogens, 2017).

Tests used:
[1] = biological target: disulfide-stabilized HIV-1 CA tubes (HIV-1); assay: co-sedimentation; purified TRIM5-21R (5 μM) incubated with disulfide-stabilized HIV-1 CA tubes, fractionated by centrifugation, load, soluble and pellet fractions on SDS-PAGE with Coomassie staining, densitometry; done right after purification
[2] = biological target: TRIM5-21R F187A (human | rhesus); assay: anion exchange chromatography + SEC; relative fractions of monomer and dimer of TRIM5-21R proteins during purification; linear salt gradient; dimer to monomers
[3] = biological target: TRIM5-21R L190A (human | rhesus); assay: as above
[4] = biological target: the molecule itself; assay: SEC-MALS; purified CC-L2 proteins, 50 μL injected at 0.5–1 mg/mL; dimer to monomers

Row | Molecule | percent in the pellet with the CA tubes [1] [%] | stoichiometry N [4] | also measured
1 | TRIM5-21R (rhesus TRIM5α with its RING domain replaced by that of human TRIM21), wildtype | – | – | percent co-pelleted with the CA tubes [1]: 50%
2 | TRIM5-21R D186A | 36 | – | –
3 | TRIM5-21R E197A | 61 | – | –
4 | TRIM5-21R F187A | – | – | monomer fraction of the total protein [2]: > 50%
5 | TRIM5-21R L190A | 34 | – | monomer fraction of the total protein [3]: > 50%
6 | TRIM5-21R L194A | 29 | – | –
7 | CC-L2 fragment of rhesus TRIM5α (residues 133–300) E197A (domain or fragment, UniProt Q0PF16 133-300, looked up, TRIM5α, rhesus, coiled-coil and L2 linker, residues 133-300; dimeric with a trailing shoulder of monomer by SEC-MALS; also called CC-L2 E197A; source: E. coli BL21(DE3), autoinduction, purified (Ni-NTA, anion exchange, size exclusion); not shown: His, N-terminal, cleaved; SUMO, N-terminal, cleaved) MEEVAQEYHVKLQTALEMLRQKQQEAEKLEADIREEKASWKIQIDYDKTNVSADFEQLREILDWAESNELQNLEKEEEDILKSLTKSETEMVQQTQYMRELISELEHRLQGSMMDLLQGVDGIIKRIENMTLKKPKTFHKNQRRVFRAPDLKGMLDMFRELTDARRYW | – | 2 | –
8 | CC-L2 fragment of rhesus TRIM5α (residues 133–300) I193A (domain or fragment, UniProt Q0PF16 133-300, looked up, TRIM5α, rhesus, coiled-coil and L2 linker, residues 133-300; also called CC-L2 I193A; source: E. coli BL21(DE3), autoinduction, purified (Ni-NTA, anion exchange, size exclusion); not shown: His, N-terminal, cleaved; SUMO, N-terminal, cleaved) MEEVAQEYHVKLQTALEMLRQKQQEAEKLEADIREEKASWKIQIDYDKTNVSADFEQLREALDWEESNELQNLEKEEEDILKSLTKSETEMVQQTQYMRELISELEHRLQGSMMDLLQGVDGIIKRIENMTLKKPKTFHKNQRRVFRAPDLKGMLDMFRELTDARRYW | – | 2 | –
9 | CC-L2 fragment of rhesus TRIM5α (residues 133–300) E201A (domain or fragment, UniProt Q0PF16 133-300, looked up, TRIM5α, rhesus, coiled-coil and L2 linker, residues 133-300; also called CC-L2 E201A; source: E. coli BL21(DE3), autoinduction, purified (Ni-NTA, anion exchange, size exclusion); not shown: His, N-terminal, cleaved; SUMO, N-terminal, cleaved) MEEVAQEYHVKLQTALEMLRQKQQEAEKLEADIREEKASWKIQIDYDKTNVSADFEQLREILDWEESNALQNLEKEEEDILKSLTKSETEMVQQTQYMRELISELEHRLQGSMMDLLQGVDGIIKRIENMTLKKPKTFHKNQRRVFRAPDLKGMLDMFRELTDARRYW | – | 2 | –
10 | CC-L2 fragment of rhesus TRIM5α (residues 133–300), wildtype (domain or fragment, UniProt Q0PF16 133-300, looked up, TRIM5α, rhesus, coiled-coil and L2 linker, residues 133-300; His-SUMO leader cleaved with Ulp1 protease; also called TRIM5α_(133–300); wildtype control; source: E. coli BL21(DE3), autoinduction, purified (Ni-NTA, anion exchange, size exclusion); not shown: His, N-terminal, cleaved; SUMO, N-terminal, cleaved) MEEVAQEYHVKLQTALEMLRQKQQEAEKLEADIREEKASWKIQIDYDKTNVSADFEQLREILDWEESNELQNLEKEEEDILKSLTKSETEMVQQTQYMRELISELEHRLQGSMMDLLQGVDGIIKRIENMTLKKPKTFHKNQRRVFRAPDLKGMLDMFRELTDARRYW | – | 2 | –
11 | CC-L2 fragment of rhesus TRIM5α (residues 133–300) D186A (domain or fragment, UniProt Q0PF16 133-300, looked up, TRIM5α, rhesus, coiled-coil and L2 linker, residues 133-300; also called CC-L2 D186A; source: E. coli BL21(DE3), autoinduction, purified (Ni-NTA, anion exchange, size exclusion); not shown: His, N-terminal, cleaved; SUMO, N-terminal, cleaved) MEEVAQEYHVKLQTALEMLRQKQQEAEKLEADIREEKASWKIQIDYDKTNVSAAFEQLREILDWEESNELQNLEKEEEDILKSLTKSETEMVQQTQYMRELISELEHRLQGSMMDLLQGVDGIIKRIENMTLKKPKTFHKNQRRVFRAPDLKGMLDMFRELTDARRYW | – | 2 | –
